In the experiment the target is T1, P1-2 domain of VP1 of human norovirus (GII.4 strain) (human norovirus (GII.4 strain)).
T1 construct: also called VP1 P1-2 domain
T1 chain: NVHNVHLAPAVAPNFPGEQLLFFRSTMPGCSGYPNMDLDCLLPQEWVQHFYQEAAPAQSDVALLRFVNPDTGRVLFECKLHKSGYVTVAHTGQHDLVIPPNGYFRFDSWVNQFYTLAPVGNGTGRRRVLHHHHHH
Briefly: Western blot of denatured VP1 domains.

B1: KVP-12B8 (VHH)
VHH: EVQLVESGGGSVQSGGSLRLSCAASGYPFSDNAMGWYRQAPGNQRELVATITNSNSTKYADSVKGRFTISRDSAKNTIYLEMNSLKPEDTAIYYCRIERTGRTSIKWTYWGQGTQVTVSS
notes: Llama VHH (nanoantibody) expressed in E. coli from pMEK222 (FLAG tag and His tag); also called IC VP-12B8; not shown: FLAG tag and His tag from vector pMEK222
On to B1, for which the binding result is “no binding (tested: 10 µg/ml)”.

B2: KVP-7C6 (VHH)
VHH: EVQLVESGGGLVQAGGSLRLSCAASGRTFGPNVMGWYRQAPGKQRELVASKTSGRLSNYADSVKGRFAISRDFAKNTLYLQMNNLRPDDTAVYYCRLWDSARSTEYWGQGTQVTVSS
notes: Llama VHH (nanoantibody) expressed in E. coli from pMEK222 (FLAG tag and His tag); not shown: FLAG tag and His tag from vector pMEK222
B2: the binding result was “no binding (tested: 10 µg/ml)”.

The values above are taken from patent US20210087258A1 (UNIVERSITY OF TOKYO, published 2021).
